Experimental findings from article PMC10938909 are described below.

Experiment [1] has as its target secretory chicken FcRY (lacking the membrane-spanning domain, residues 36-1396) (chicken). Kind of experiment: BLI; BLItz, advanced kinetics; chicken FcRY (400 nM) immobilised on Ni-NTA sensor via His tag; Igs 50-600 nM; pH 5.5 (PBS, 0.05% Tween 20, 20 mM MES, 0.5% BSA); association 120 s, dissociation 120 s; 1:1 fit. (BLI is a label-free optical method that tracks binding on a fibre tip over time.)

Experiment [2] has the same target.
The target is the same in experiment [3]. Briefly: ELISA; graded pH (pH 4.0-7.4), IgY-Fc mutants at 55.6 nM on FcRY held on copper-coated plates; the acidic points (strongest at pH 5.5, pH 5.0-6.0).
Experiment [4] has the same target. The source holds these as a separate data set.
Experiment [5] has as its target secretory chicken FcRY (lacking the membrane-spanning domain, residues 36-1396). Kind of experiment: competitive binding assay against DIG-IgY on FcRY-immobilized plate, ELISA. The following applies: pH 6.0, DIG-IgY tracer (m10) 27.8 nM, value is DIG-IgY still bound (lower = stronger competition), no-competitor level est. 0.17 nM, n = 3, read off a plot. Background: ELISA stands for enzyme-linked immunosorbent assay.

Experiment [6] addresses recombinant quail IgY-Fc wild type (WT). Kind of experiment: bio-layer interferometry (BLItz, advanced kinetics mode). The following applies: pH 5.5; PBS (composition not stated); PBS with 20 mM MES at pH 5.5 or 20 mM HEPES at pH 7.4.
Experiment [7] addresses recombinant quail IgY-Fc Y363A Y363A. Described as above. The following applies: pH 5.5; PBS (composition not stated); PBS with 20 mM MES at pH 5.5 or 20 mM HEPES at pH 7.4.
For a further experiment, the target named is native quail IgY (qIgY). Described as above. The following applies: pH 5.5; PBS (composition not stated); PBS with 20 mM MES at pH 5.5 or 20 mM HEPES at pH 7.4.
For experiment [8], the target named is recombinant quail IgY-Fc G365A G365A. The experiment is described as above. The following applies: pH 5.5; PBS (composition not stated); PBS with 20 mM MES at pH 5.5 or 20 mM HEPES at pH 7.4.
The mark [9] stands for this setting: competitor 55.6 nM, parent: est. 0.080.
Where [10] appears, read: competitor 111.1 nM, parent: est. 0.060.
Where [11] appears, read: competitor 277.8 nM, parent: est. 0.042.

For orientation: Kd means the constant that tells how readily two partners part at equilibrium. One may read the koff as the first-order rate constant of dissociation. The kon is a measure of how fast the partners come together.

Take native quail IgY (ligand): in experiment [1], the Kd amounted to 275 nM, the koff stood at 0.0095 s⁻¹ and the kon was found to be 35000 M⁻¹ s⁻¹.

“quail IgY-Fc mutant G365A (domain or fragment)” displayed an uptake of the intravenously injected DIG-labeled IgY-Fc mutant (20 ug/100 g BW) into quail egg yolks, eggs of 6 d, relative to WT in [2] of 2 fold. In [1], the Kd is 197 nM, the off-rate (koff) worked out at 0.0082 s⁻¹ and the on-rate constant (kon) was determined as 42000 M⁻¹ s⁻¹.

In the case of “quail IgY-Fc mutant Y363A (domain or fragment)”, in [1], the Kd amounted to 65 nM, the koff is 0.0015 s⁻¹ and the kon was 23000 M⁻¹ s⁻¹. In experiment [3], this substance registered an amount bound at pH 5.0-6.0 relative to WT and G365A of 2 fold.

As to “recombinant quail wild-type IgY-Fc (domain or fragment)”, in [1], the Kd turned out to be 333 nM, the koff was determined as 0.0065 s⁻¹ and the kon is 19000 M⁻¹ s⁻¹. In experiment [4], this substance had an uptake of DIG-labeled WT tracer into egg yolks of laying quail co-injected with the FcRY-neutralizing rabbit antibody Strong Ab (1 mg/100 g BW), relative to control rabbit IgG of 20% and an uptake of DIG-labeled WT tracer into egg yolks of laying quail co-injected with the FcRY-neutralizing rabbit antibody Weak Ab (1 mg/100 g BW), relative to control of 60%.

On to “recombinant quail wild-type IgY-Fc G365D”, for which the response in [5] (setting [9]) is 0.15 nM; in [5] (setting [10]) it was 0.13 nM; in [5] (setting [11]), 0.14 nM.

Take “recombinant quail wild-type IgY-Fc G365S”: the response in [5] (setting [9]) was found to be 0.086 nM; in [5] (setting [10]), 0.066 nM; in experiment [5] (setting [11]), 0.05 nM.

Take “recombinant quail wild-type IgY-Fc N408A”: the response in experiment [5] (setting [9]) came to 0.11 nM; in experiment [5] (setting [10]) it was 0.1 nM; in experiment [5] (setting [11]), 0.086 nM.

Turning to “secretory FcRY (IgY-Fc receptor, PLA2R homologue) ectodomain”, the ka in [6] stood at 19000 M⁻¹ s⁻¹; in [7], 23000 M⁻¹ s⁻¹; with native quail IgY (qIgY), 35000 M⁻¹ s⁻¹; in [8], 42000 M⁻¹ s⁻¹. Moreover, the kd in [6] turned out to be 0.0065 s⁻¹; in experiment [7] it was 0.0015 s⁻¹; in the experiment with native quail IgY (qIgY), 0.0095 s⁻¹; in experiment [8] it was 0.0082 s⁻¹.
